# From the nanobody polyreactivity screen of Harvey et al. (2022)
# Test: yeast display, Sf9 membrane polyspecificity reagent, FACS + sequencing; frameworks hold sequencing errors
# Summary of the method: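 Nanobodies came from a synthetic yeast display library in Saccharomyces cerevisiae BJ5465, induced with galactose for 36–48 hours and stained for 1 hour at 4 °C with 10% biotinylated, detergent-solubilized Sf9 membrane reagent. Cells were enriched on streptavidin microbeads and then FACS-sorted, with low and high (top ~1%) gates set on anti-HA fluorescence for expression and streptavidin fluorescence for reagent binding. Each polyreactivity label reflects the gate a clone came from. Genes were amplified by colony PCR, sequenced by MiSeq 2 × 250 and filtered by CDR length.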
row,Sequence,polyreactivity (PSR sort gate)
1,QVQLVESGGGLVQAGGSLRLSCAASGFTFYYYAMGWYRQAPGKERELVAAISSTGGSTYYADSVKGRFTISRDNAKNTVYLQMNSLKPEDSAVYYCNAAGYRYPGDYDYWGQGTQVTVSS,high polyreactivity
2,QVQLVESGGGLVQAGGSLRLSCAASGFTFYYYAMGWYRQAPGKERELVAAISTRDGNTYYADSVKGRFTISRDNAKNTVYLQMNSLKPEDTAVYYCAADYFRYYPYDYWGQGTQVTVSS,low polyreactivity
3,QVQLVESGGGLVQAGGSLRLSCAASGFTFYYYAMGWYRQAPGKERELVAGITGSGGRTYYADSVKGRFTISRDNAKNTVYLQMNSLKPEDTAVYYCNARSLWYDYWGQGTQVTVSS,high polyreactivity
4,QVQLVESGGGLVQAGGSLRLSCAASGFTFYYYAMGWYRQAPGKERELVASISWRGGSTYYADSVKGRFTISRDNAKITVYLQMNSLKPEDTAVYYCAAQKRGSPGYRRDYWGQGTQVTVSS,high polyreactivity
5,QVQLVESGGGLVQAGGSLRLSCAASGFTFYYYAMGWYRQAPGKESDLVAAISWSGGTTYYADSVKGRFTISRDNAKNTVYFQMNSLKPEDPAVYYCAADIRDPGVPMDYWGQGTQVTVSS,low polyreactivity
6,QVQLVESGGGLVQAGGSLRLSCAASGFTFYYYTMGWYRQAPGKERELVAAITWRGGSTNYADSVKGRFTISRDNAKNTVYLQMNSLKPEDTAVYYCAAVTYWFWPGMDYWGQGTQVTVSS,low polyreactivity
7,QVQLVESGGGLVQAGGSLRLSCAASGFTIDGYAMGGYRQAPGKERELVAAISGGGSTYYADSVKGRFTISRDNAKNTVYLQMNSLKPEDTAVYYCAAARITRGRRYDYWGQGTQVTVSS,high polyreactivity
8,QVQLVESGGGLVQAGGSLRLSCAASGFTIDNYAMGWYRHSPGKEMEVVAAINWSGDRMYYADSVKGRFTFSRDNAKNTVYLQMNSLKPEDTAVYYCAAPASRSQGPFPGYDYWGQGTQVTVSS,high polyreactivity
9,QVQLVESGGGLVQAGGSLRLSCAASGFTIDSNVMGWYRQAPGKDRELVAAITGDDTTYYADSVKGRFTISRDNAKNTVYLQMNSLKPEDTAVYYCAADETESLEYTAYDMYYWGQGTQVTVSS,low polyreactivity
10,QVQLVESGGGLVQAGGSLRLSCAASGFTIESNAMGWYRQAPGKERELVAAISASGDSTYYADSVKGRFTISRDNAKNTVYLQMNSLKPEDTAVYYCAADRYYGGWRFDHWGQGTQVTVSS,low polyreactivity
11,QVQLVESGGGLVQAGGSLRLSCAASGFTIIYNAMGWYSQAPGKERELVAAISSGGSTYYADSVKGRFTISRDNAKNTVYFQMNSLKPVDTAVYYCNADVGFFNSGYEDSDYWGQGTQVTVSS,low polyreactivity
12,QVQLVESGGGLVQAGGSLRLSCAASGFTINGNAMGWYRQAPGKERELVAAITWRGGSTYYADSVKGRFTISRDNAKNTVYLQMNSLKPEDTAVYYCNVEGWYDYDYWGQGTQVTVSS,high polyreactivity
13,QVQLVESGGGLVQAGGSLRLSCAASGFTININDMRGYRQAPGIDTDLVAALSWNVGNRYYADSVKGRFTISRDNAKNTVYLQMKSLKPEDTAVYYCAADRYIRWVEFDYWGQGTQVTVSS,low polyreactivity
14,QVQLVESGGGLVQAGGSLRLSCAASGFTIRAYVMGSYRQAPGKEREFVADISYRGGGTNYADSVKGRFTISRDNAKNTVYLQMNSLKPEDTAVYYCNARSGSSKSGYYYWGQGTQVTVSS,high polyreactivity
15,QVQLVESGGGLVQAGGSLRLSCAASGFTIRSYVMGWYRQAPGKEREFVAAISYRGGGTNYADSVKGRFTISRDNAKNTVYLQMNSLKPEDTAVYYCNALVYDQYGYYHYYLRNGGYYWGQGTQVTVSS,high polyreactivity
16,QVQLVESGGGLVQAGGSLRLSCAASGFTIRYYALGWYRQAPGKERELVAAISRGGSTTYADSVKGRFTISRDNAKNTVYLQMNSLKPEDTAVDYCAVYSKWSVTYDYWGQGTQVTVSS,high polyreactivity
17,QVQLVESGGGLVQAGGSLRLSCAASGFTISQYAMGWYRQAPGKERELVAVISINGGSTYYADSVKGRFTISRDNAKNTVYLEKNSLKPEDTAVYYCAADDTDSEDYGYDYWGQGTQVTVSS,low polyreactivity
18,QVQLVESGGGLVQAGGSLRLSCAASGFTITKYAMGWYRQAPGKERALVAAISRSAGSTYYADSVKGRFTISRDNAKHTVYLQMNSLKPEDTAVYYCNAYPKGRYAAAFPGMDYWGQGTQVTVSS,high polyreactivity
19,QVQLVESGGGLVQAGGSLRLSCAASGFTIVYYAMGWYRQAPGKERELVAAISATGGRTYYADSVKGRFTISRDNAKNTVYLQMNSLKPEDTAVYYCAVGLSGASSGMGYWGQGTQVTVSS,high polyreactivity
20,QVQLVESGGGLVQAGGSLRLSCAASGFTIWRYAMGWYRQAPGKERELVAAISRGGSTNYADSVKGRFTISRDNAKNTVYLQMNSLKPEDTAVYYCAASVQYRRLKKFYYWGQGTQVTVSS,high polyreactivity
21,QVQLVESGGGLVQAGGSLRLSCAASGFTIYHNAMGWYRQAPGKERELVAAISSSGDSTYYADSVKGRFTISRDNAKNTVYLQMNSLKPEDTAVYYCNDYFYYLSLYYYYWFNYDYWGQGTQVTVSS,low polyreactivity
22,QVQLVESGGGLVQAGGSLRLSCAASGFTIYKYAMGWYRQPPGKERELVAAITGRGGSTNYADSVKGRFTISRDTAQNTVYLQMNILKPEDTAFYYCAARTPSYEMDYWGQGTQVTVSS,high polyreactivity

row,Sequence,polyreactivity (PSR sort gate)
1,QVQLVESGGGLVQAGGSLRLSCAASGFTIYLYTMGWYRQAPGKERELVATISWSGGSTYYADSVKGRFTISRDNAKNNVYLHMNSLKPEDTAVYYCAKAYNGRYTWRYDYWGQGTQVTVSS,high polyreactivity
2,QVQLVESGGGLVQAGGSLRLSCAASGFTIYRYAMGWYRQAPGKERELVAAITGGGGSTYYADSVKGRFTISRDNAKNTVYLQMNSLKPEVTAVYYCAVDVYHKGQYRWSYGYWGQGTQVTVSS,low polyreactivity
3,QVQLVESGGGLVQAGGSLRLSCAASGFTLAGYAMGWYRQAPGKERELVSAITTSGGSTFYADSVKGRFTISRDNAKNTDYLKMNSLKPEDTAVYYCAAAIRTRTSYYRFDYWGQGTQVTVSS,high polyreactivity
4,QVQLVESGGGLVQAGGSLRLSCAASGFTLANYAMGWYRQAPGKERELVAAIDYSGGGTYYADSVKGRFTISRDNAKNTVYLQMNSLKPEDTAVYYCAARRWSYYSAKYDYWGQGTQVTVSS,low polyreactivity
5,QVQLVESGGGLVQAGGSLRLSCAASGFTLARYAMGWYRPAPGKERELVAALTQSGVSTYYADSVKGRFTISRDNAKNTVYLQMNSLKPEDTAVYYCNALLRRTDYRYTWGYGYWGQGTQVTVSS,high polyreactivity
6,QVQLVESGGGLVQAGGSLRLSCAASGFTLDRYAMGWYRQAPGKERELVAAITQSGVSTYYADSVKGRFTISRDNAKNTVYLQMNSLKPEDTAVYYCNALLRRTDYRYTWGYGYWGQGTQVTVSS,high polyreactivity
7,QVQLVESGGGLVQAGGSLRLSCAASGFTLEYNAMGWYRQAPGKERELVAAIDGDGTTYYADSVKGRFTISRDNAKNTVYLQMNSLKPEDTAVYYCNTRTTPYYAQGITRIEYDYWGQGTQVTVSS,low polyreactivity
8,QVQLVESGGGLVQAGGSLRLSCAASGFTLFWNDMGWYRQAPGKERELVAAITSGDDTYADSVKGRFTISRDNAKNTVYLQMNSLKPEDTAVYYCNKDDPLRNVAQVILYEFYYWGQGTQVTVSS,low polyreactivity
9,QVQLVESGGGLVQAGGSLRLSCAASGFTLGRYAMGWYRQAPGKERELVAAISSGGRTYYADSVKGRFTISRDNAKNTVYLQMNSLKPEDTAVYYCAADPRYISYDYWGQGTQVTVSS,low polyreactivity
10,QVQLVESGGGLVQAGGSLRLSCAASGFTLGSNAMGWYRQAPGKERELVAAISKSGGSTYYADSVKGRFTISRDNAKNTVYLQMNSLKPEDTAVYYCAARYLYQGYRYDYWGQGTQVTVSS,high polyreactivity
11,QVQLVESGGGLVQAGGSLRLSCAASGFTLPVYAMGWYRQAPGKERELVARITWSAGRTYYADSVKGRFTISRDNAKNTGYLQMNSLKPEDTAVYYCAAGPVSQHHSPRPHDYWGQGTQVTVSS,high polyreactivity
12,QVQLVESGGGLVQAGGSLRLSCAASGFTLPVYGMGWYRQAPGQERELVAAISSRGGNTYYADSVKGRFTISRDNAKNTVYLQMNSLKPEDTAVYYCAAGGITYTGDDYWGQGTQVTVSS,high polyreactivity
13,QVQLVESGGGLVQAGGSLRLSCAASGFTLQRYAMGWYRQAPGKEREFVAVITRSGGSTYYADSVKGRFTISRDNAKNSVYLQMNSLKPEDTAVYDCAKREFPTTRNRGRYDYWGQGTQVTVSS,high polyreactivity
14,QVQLVESGGGLVQAGGSLRLSCAASGFTLSYYAMGWYRQAPGKERELVASISAIGGITYYADSVKGRFTISRDNAKNTVYLQMNSLKPEDTAVYYCARQGRRYRRFDSWGQGTQVTVSS,high polyreactivity
15,QVQLVESGGGLVQAGGSLRLSCAASGFTLTLYAMGCYRQSPGKERELVAAISGNGGRTYYADSVKGRFTISRDNAKNTVYLQMNSLKPEDTAVYYCAARYTRSPSDYSTRKFGYGYWGQGTQVTVSS,high polyreactivity
16,QVQLVESGGGLVQAGGSLRLSCAASGFTLTLYAMGWYRQAPGKERELVARITSSGGITYYADSVKGRFTISRDNAKNTVYLQMISLKPEDTAVYYCAKEALIGPSRIILGEMGYWGQGTQVTVSS,low polyreactivity
17,QVQLVESGGGLVQAGGSLRLSCAASGFTLTRNAMGWYRQAPGKERELVAAISWSGGTTYYADSVKGRFTISRDNAKNTVYLQMNSLKPEDTAVYYCAADYTLQRQTSFLDSEFYWGQGTQVTVSS,high polyreactivity
18,QVQLVESGGGLVQAGGSLRLSCAASGFTLVKYVMVWYMQAPGKEREFVATIRRRGGNTYYADSVKGRFTISRDNAKNTVYLQMNSLKPEDTAVYYCAAKKRSDLRTGDMEYWGQGTQVTVSS,high polyreactivity
19,QVQLVESGGGLVQAGGSLRLSCAASGFTLVLNAMGWYRQAPGKERELVAAIRRSAGSTYYADSVKGRFTISRDNAKNTVYLQMNSLKPEDTAVYYCAAGFLWAKYAYGHWGQGTQVTVSS,low polyreactivity
20,QVQLVESGGGLVQAGGSLRLSCAASGFTLVLNAMGWYRQAPGKEREVVAAIRRSAGSTYYADSVKGRFTISRDNAKNTVYLQMNSLKPEDTAVYYCAAGFLWAKYAYGHWGQGTQVTVSS,low polyreactivity
21,QVQLVESGGGLVQAGGSLRLSCAASGFTLWLNAMGWYRRAPGKERELVAAITTSDDGTYYADSVKGRFTISRDNAKNTVYLQMNSLKPEDTAVYYCAADYYSVLYDYWGQGTQVTVSS,low polyreactivity
